Test results reported in paper PMC5389416 (Journal of molecular biology, 2017).

Tests used:
Experiment in all cases: HDX-MS
[1] = biological target: T1, Murine N-terminal hexahistidine-p50(39-350) (mouse, UniProt P25799 39-350)
T1 sequence (looked up): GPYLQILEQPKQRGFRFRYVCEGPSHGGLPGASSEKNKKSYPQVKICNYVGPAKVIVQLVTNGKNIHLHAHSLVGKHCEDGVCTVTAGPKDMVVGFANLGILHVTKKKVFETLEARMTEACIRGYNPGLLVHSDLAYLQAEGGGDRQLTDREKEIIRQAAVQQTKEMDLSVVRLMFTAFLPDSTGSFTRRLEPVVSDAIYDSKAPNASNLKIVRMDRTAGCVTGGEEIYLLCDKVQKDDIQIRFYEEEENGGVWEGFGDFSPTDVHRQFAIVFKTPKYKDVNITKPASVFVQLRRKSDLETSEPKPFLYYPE

[2] = biological target: Murine dimerization domain p50(248-350)/RelA(190-321) (mouse, UniProt P25799 248-350; Q04207 190-321)
Sequence of Murine dimerization domain p50(248-350)/RelA(190-321) (Q04207 190-321, one chain of several): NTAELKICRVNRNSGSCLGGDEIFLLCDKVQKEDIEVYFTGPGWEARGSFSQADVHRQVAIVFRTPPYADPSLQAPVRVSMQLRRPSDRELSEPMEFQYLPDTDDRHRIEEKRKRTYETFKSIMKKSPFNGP

Murine RelA(19-321) = Murine RelA(19-321) (mouse, UniProt Q04207 19-321)
Sequence of Murine RelA(19-321) (Q04207 19-321): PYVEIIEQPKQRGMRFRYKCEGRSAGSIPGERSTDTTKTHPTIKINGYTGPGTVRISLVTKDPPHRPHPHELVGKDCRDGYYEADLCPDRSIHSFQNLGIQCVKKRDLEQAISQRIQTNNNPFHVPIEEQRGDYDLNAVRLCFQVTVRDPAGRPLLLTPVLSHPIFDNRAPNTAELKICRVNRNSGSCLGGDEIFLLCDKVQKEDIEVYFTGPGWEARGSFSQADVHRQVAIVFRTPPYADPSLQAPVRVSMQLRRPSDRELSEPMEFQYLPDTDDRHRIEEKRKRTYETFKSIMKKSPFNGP

- binding result [1]: binds
- binding result [2]: binds
- binding result (Murine RelA(19-321)): binds
B1: Homo sapiens IκBα(67-287) (domain or fragment, human, UniProt P25963 67-287, looked up)
chain: KQQLTEDGDSFLHLAIIHEEKALTMEVIRQVKGDLAFLNFQNNLQQTPLHLAVITNQPEIAEALLGAGCDPELRDFRGNTPLHLACEQGCLASVGVLTQSCTTPHLHSILKATNYNGHTCLHLASIHGYLGIVELLVSLGADVNAQEPCNGRTALHLAVDLQNPDLVSLLLKCGADVNRVTYQGYSPYQLTWGRPSTRIQQQLGQLTLENLQMLPESEDEE
